Laboratory results published in patent US20240091164.

Target: fluorescein isothiocyanate-tagged BSA (FITC-BSA) (UniProt P02769)
Sequence (P02769 25-607): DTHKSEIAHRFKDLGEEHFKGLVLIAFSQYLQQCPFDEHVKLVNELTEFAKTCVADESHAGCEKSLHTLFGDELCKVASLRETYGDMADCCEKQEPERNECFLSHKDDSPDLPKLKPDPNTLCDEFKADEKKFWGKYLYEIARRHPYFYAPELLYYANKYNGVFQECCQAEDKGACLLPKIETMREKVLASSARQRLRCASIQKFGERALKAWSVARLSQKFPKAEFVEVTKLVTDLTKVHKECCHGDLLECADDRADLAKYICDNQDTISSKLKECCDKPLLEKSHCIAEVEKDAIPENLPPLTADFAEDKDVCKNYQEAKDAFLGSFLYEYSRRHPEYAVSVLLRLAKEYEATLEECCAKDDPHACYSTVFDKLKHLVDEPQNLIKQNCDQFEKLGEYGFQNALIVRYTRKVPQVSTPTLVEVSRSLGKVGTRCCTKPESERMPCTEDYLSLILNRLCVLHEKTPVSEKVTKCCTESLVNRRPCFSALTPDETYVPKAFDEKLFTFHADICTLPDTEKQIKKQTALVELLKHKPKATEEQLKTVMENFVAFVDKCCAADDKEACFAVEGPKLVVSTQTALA

## trypsin
  increase in fluorescence from proteolytic cleavage of quenched FITC-BSA: This assay confirmed the ability of trypsin@NP to cleave BSA
